In the supplement of paper PMC10126150:
± gives the standard deviation of the averaged measurements.

System: ATP
Experiment: switch fluorescence ratio, 500 uM ATP over buffer (Cy3 cluster intensity, sum of 5 cycles each) (fold (ratio)); higher = stronger signal-on switching upon ATP binding; sequences stand for … in TCGTCGGCAGCGTCAGATGTGTATAAGAGACAGTTTTTTTTTTTTTTTTTTTTTTTTT…TC
Conditions: aptamer strand: ATP DNA aptamer (quencher-CACCTGGGGGAGTATTGCGGAGGAAGG + anchor), 100 nM annealed; ATP concentration: 500 uM
Outline: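 After annealing to 100 nM quencher-labelled ATP aptamer, Cy3-labelled switching-strand clusters on a modified Illumina MiSeq flow-cell were imaged in selection buffer. A second image followed after 15 min with 500 uM ATP at 22 °C, and five such buffer/ATP cycles were done, each separated by NaOH stripping and re-annealing. The fluorescence ratio, averaged per switch-domain sequence, is summed target-cycle over summed buffer-cycle Cy3 intensity per cluster, with clusters outside 100-1000 RFU excluded.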
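Note: ATP exposure 15 min at 22 °C before imaging.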

Sequence	switch fluorescence ratio
TTAAACGAGT	0.997 ± 0.017
CCGTTGGGTG	1.12 ± 0.071
GTGTCAACGT	0.978 ± 0.017
AAGTTGTGGC	1.01 ± 0.017
GGCGGGTGAG	1.03 ± 0.025
TTGAAGGTGC	1.69 ± 0.43
GGGTTATCCT	1.07 ± 0.047
AAAAGGATTG	0.982 ± 0.04
AGATGACTGA	0.997 ± 0.048
GACTAATAGG	0.992 ± 0.012
AAGTAGGGGA	1.02 ± 0.021
TTAAGGCATG	0.997 ± 0.018
CAAAAGCCTA	0.974 ± 0.053
TTTTACTTGG	0.993 ± 0.015
TTATACGTCG	1.01 ± 0.023
CGAGGAGGGC	0.974 ± 0.019
CGAAGGGTGA	1.06 ± 0.02
TAATAATGGG	1.02 ± 0.042
TGAGGGGATG	0.994 ± 0.023
AAGCGCATTT	1.05 ± 0.029
CAAGAGTGTG	0.98 ± 0.032
TTGTTGGGGG	0.994 ± 0.027
TCCGGCTGAG	1.02 ± 0.012
GAAGAATAGG	0.967 ± 0.015
TGCAAAAGAG	1.01 ± 0.062

Sequence	switch fluorescence ratio
AGAATGTTTT	0.989 ± 0.033
CGGTGGGGT	1.035 ± 0.0064
ATTTGGGGTC	0.9644 ± 0.0056
ATATGCTATC	1.02 ± 0.014
AGTGCGGGGG	1.036 ± 0.0073
CGTCTTGTGG	1 ± 0.022
ATAGGGCCTT	1.02 ± 0.05
TGGGGGAAA	0.988 ± 0.04
TGTTAAATGG	0.962 ± 0.014
CGCGGTATCT	1.02 ± 0.033
TTTAAGTCAG	1.018 ± 0.0088
AAGTTTTCGG	0.989 ± 0.052
TAGGCCGTTT	1 ± 0.084
ACGGGTGGGA	1.005 ± 0.0036
GATTCACGA	0.984 ± 0.015
GTTGATTTTG	0.981 ± 0.042
TCGTCGGGGC	1.03 ± 0.029
AGGTAGGCCA	0.951 ± 0.026
TGAACGTTGG	0.997 ± 0.029
GGGAGAGCA	0.9821 ± 0.0098
GTTTTTGAAA	0.982 ± 0.037
TTATTAGGCA	1.01 ± 0.023
GCTGATGACT	0.9918 ± 0.0063
TCTCATTCTT	1.03 ± 0.028
GCTGTAAAAA	1.08 ± 0.063

Sequence	switch fluorescence ratio
TTTGATTGTG	1.03 ± 0.029
AACGAAAAGT	0.996 ± 0.012
AAGGGATTGA	1.01 ± 0.011
TAATTTCCGG	0.994 ± 0.029
ATGACGCGGA	1.048 ± 0.0097
AGGGGAGTTA	1.02 ± 0.051
GTTTTTAGT	1.006 ± 0.0027
TGAGTGCTGC	1.08 ± 0.075
CGGGGGCGGA	1.04 ± 0.052
GGGGCTTGAC	1.01 ± 0.022
TTCCCGGACT	1.02 ± 0.024
TAGAGTGGGC	0.991 ± 0.013
TCTATTTCGT	1.01 ± 0.032
TTTTACCTAT	1.04 ± 0.021
TGAGCAGGTT	1.017 ± 0.0094
CAGGGGGGTT	1.09 ± 0.21
TGAAGTTAGG	1.01 ± 0.021
ACTGTTTCTC	0.996 ± 0.022
CGAGCTTTAG	1.024 ± 0.0033
GGTCTTTGAA	0.979 ± 0.023
TGTACTTTTT	1.02 ± 0.022
ATTACGGGGT	1.01 ± 0.044
ATTTTTCCCG	1.07 ± 0.059
TGGGTGTGCT	1.01 ± 0.03
CGGAGGTAGC	1.03 ± 0.058

Sequence	switch fluorescence ratio
TTCCAGTTGG	1.04 ± 0.037
CCGGTGGGGT	1.01 ± 0.03
TTTGCCTGCT	1.01 ± 0.043
GGTTGTCTGC	0.968 ± 0.055
GGCTGTTTGG	1 ± 0.012
TATAGCTAAT	1.027 ± 0.0041
TACGTCACGA	1.42 ± 0.19
ACGTTCGGAG	1.05 ± 0.05
TCTTTGGACT	1.002 ± 0.0032
CCAATGATAA	1.014 ± 0.0034
TAAAGGTTAC	1.03 ± 0.028
AGTCACGGGT	1.03 ± 0.016
GGGAAATTAG	1 ± 0.026
TGCGTAAGGC	1.18 ± 0.025
GGTGTTGTGG	0.9911 ± 0.0093
TTATGAGTTG	0.963 ± 0.029
GGGCCAGTGA	1.03 ± 0.039
CATGCGGTTG	0.978 ± 0.013
GTTTTGCGAA	0.9957 ± 0.0086
AAGGGGTCTC	0.998 ± 0.021
GGCCCGGGGG	1.01 ± 0.028
GCTTCTGGGT	0.996 ± 0.017
CTTTGGGGCT	0.999 ± 0.038
TTTTATGTTA	0.977 ± 0.032
ATGGTTGGTA	0.995 ± 0.038
